Measurements as given in patent US20050260565A1 (ICOS, published 2005).

Tests used:
FLAG-tagged 88C receptor [1] = molecular target: T1, FLAG-tagged 88C receptor (human, UniProt P51681 1-352); assay: competition of the unlabeled ligand with 1.5 nM 125I-MIP-1β on HEK-293 cells expressing FLAG-tagged 88C
T1 sequence: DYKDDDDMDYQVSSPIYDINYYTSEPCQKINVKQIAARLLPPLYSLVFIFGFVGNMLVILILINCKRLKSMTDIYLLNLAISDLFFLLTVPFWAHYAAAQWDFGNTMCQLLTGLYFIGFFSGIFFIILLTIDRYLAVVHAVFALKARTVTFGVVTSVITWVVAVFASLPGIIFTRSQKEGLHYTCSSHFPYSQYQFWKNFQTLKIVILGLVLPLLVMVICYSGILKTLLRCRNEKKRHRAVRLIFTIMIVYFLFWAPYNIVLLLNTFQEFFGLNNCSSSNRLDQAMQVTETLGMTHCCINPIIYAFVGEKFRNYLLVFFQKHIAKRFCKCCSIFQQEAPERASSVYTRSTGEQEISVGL
Excerpt: (§1) Another assay for receptor interaction with chemokines was a modification of the binding assay described by Ernst et al., J. Immunol. 152:3541-3549 (1994). MIP-1β as labeled using the Bolton and Hunter reagent (di-iodide, NEN, Wilmington, Del.), according to the manufacturer's instructions. Unconjugated iodide was separated from labeled protein by elution using a PD-10 column (Pharmacia) equilibrated with PBS and BSA (1% w/v). The specific activity was typically 2200 Ci/mmole. Equilibrium binding was performed by adding ¹²⁵I-labeled ligand with or without a 100-fold excess of unlabeled ligand, to 5×10⁵ HEK-293 cells transfected with 88C tagged with the FLAG epitope in polypropylene tubes in a total volume of 300 μl (50 mM HEPES pH 7.4, 1 mM CaCl₂, MgCl₂, 0.5% BSA) and incubating for 90 minutes at 27° C. with shaking at 150 rpm. The cells were collected, using a Skatron cell harvester (Skatron Instruments Inc., Sterling, Va.), on glass fiber filters presoaked in 0.3% polyethyleneimine and 0.2% BSA. After washing, the filters were removed and bound ligand was quantitated by counting gamma emissions. Ligand binding by competition with unlabeled ligand was determined by incubation of 5×10⁵ transfected cells (as above) with 1.5 nM of radiolabeled ligand and the indicated concentrations of unlabeled ligand. The samples were collected, washed and counted as above. The data was analyzed using the curve-fitting program Prism (GraphPad Inc., San Diego, Calif.) and the iterative non-linear regression program, LIGAND (PM220).
In equilibrium binding assays, 88C receptor bound radiolabeled MIP-1β in a specific and saturable manner.

FLAG-tagged 88C receptor [2] = molecular target: T1, FLAG-tagged 88C receptor; assay: cell-based or functional assay
FLAG-tagged 88C receptor [3] = molecular target: T1, FLAG-tagged 88C receptor; assay: equilibrium binding of 125I-MIP-1β to HEK-293 cells expressing FLAG-tagged 88C, Scatchard analysis
Excerpt: as §1, with “The cells were collected, using a Skatron cell harvester (Skatron Instruments Inc., Sterling, Va.), on glass fiber filters presoaked in 0.3% polyethyleneimine and 0.2% BSA.” left out, “(PM220). […]” for “(PM220).”

B1: MIP-1β (ligand, UniProt P13236 24-92, looked up)
chain: APMGSDPPTACCFSYTARKLPRNFVVDYYETSSLCSQPAVVFQTKRSKQVCADPSESWVQEYVYDLELN
modifications: ends and bridges not checked; also: 125I label (Bolton and Hunter reagent) where used as radiolabeled ligand
In the case of B1, the IC50 (FLAG-tagged 88C receptor [1]) is reported as 7.4 nM, the “EC50 of inositol phosphate formation (dose-response curves)” value (shortened to “EC50 of inositol phosphate formation”) (FLAG-tagged 88C receptor [2]) is reported as 6 nM and the Kd (FLAG-tagged 88C receptor [3]) is reported as 1.6 nM.

B2: RANTES (Regulated on Activation, Normal T Expressed and Secreted) (ligand, UniProt P13501 24-91, looked up)
chain: SPYSSDTTPCCFAYIARPLPRAHIKEYFYTSGKCSNPAVVFVTRKNRQVCANPEKKWVREYINSLEMS
B2 was tested, and the IC50 (FLAG-tagged 88C receptor [1]) was 6.9 nM and the “EC50 of inositol phosphate formation” value (FLAG-tagged 88C receptor [2]) was 1 nM.

B3: MIP-1α (ligand, UniProt P10147 24-92, looked up)
chain: SLAADTPTACCFSYTSRQIPQNFIADYFETSSQCSKPGVIFLTKRSRQVCADPSEEWVQKYVSDLELSA
For B3, the IC50 (FLAG-tagged 88C receptor [1]) was 7.4 nM and the “EC50 of inositol phosphate formation” value (FLAG-tagged 88C receptor [2]) was 22 nM.
